Here are results for four proteins from patent US20260125725A1 (ANTHEIA, published 2026).

Data set [1] deals with the molecule itself. In words: size exclusion chromatography of purified recombinant THS2 (FIG. 15B). In general terms: Size exclusion chromatography separates by hydrodynamic size, large species first.
Data set [2] deals with the molecule itself. In words: cross-linking, SDS-PAGE and immunoblot (FIG. 15A). How it is done: (§1) All versions of THS1 and THS2 transcripts were codon-optimized and expressed in E. coli. Purified recombinant THS proteins were added to SalAT-coupled enzyme assays. […] Chemical cross-linking with the purified, recombinant THS proteins was performed to confirm dimerization (FIGS. 15A and 15B). Both THS1 and THS2 can form homodimers, and also display the formation of higher molecular weight oligomers at lower abundance. […] To further investigate the relative abundance of THS isoforms in the plant, protein extracts derived from whole stem, latex-free stem, and latex isolated from the T chemotype were subjected to proteomics analysis (FIG. 11C). In detected peptides with at least one amino acid substitution spectral counts for THS2 were considerably higher than for THS1, consistent with the higher abundance of THS2, compared with THS1, transcripts (FIG. 12C).
(§2) Cross-linking experiments. Bis[sulfosuccinimidyl] suberate (BS3) was used as cross-linking reagent and prepared in PBS buffer at a concentration of 10 mM, of which 2 μL was added to 20 μL of purified recombinant protein (1 μg/μL). After incubation on ice for 1 h, 5 μL of 5×SDS (10% w/v) was added to quench the reaction. Samples were then boiled for 5 min and subjected to SDS-PAGE and immunoblot analysis.
In general terms: A western blot detects proteins with antibodies after separation by electrophoresis.

Data set [3] concerns the molecule itself. The experiment in a line: BS3 chemical cross-linking of purified recombinant protein, SDS-PAGE and immunoblot. How it is done:
as §1, §2

B1: THS2 (thebaine synthesis polypeptide isoform, SEQ ID NO. 6) (enzyme)
chain: MAPLGVSGLVGKLSTELEVDCDAEKYYNMYKHGEDVKKAVPHLCVDVKIISGDPTSSGCIKEWNVNIDGKTIRSVEETTHDDETKTLRHRVFEGDVMKDFKKFDTIMVVNPKPDGNGCVVTRSIEYEKTNENSPTPFDYLQFGHQAIEDMNKYLRDSESN
notes: Purified recombinant protein from E. coli, made from a codon-optimized gene; 163 amino acids; also called Betv1; Betv1M
In the case of B1, the binding result in data set [1] is “binds”.

B2: THS2s (N-terminally truncated splice variant of THS2, SEQ ID NO. 32) (enzyme)
chain: MYKHGEDVKKAVPHLCVDVKIISGDPTSSGCIKEWNVNIDGKTIRSVEETTHDDETKTLRHRVFEGDVMKDFKKFDTIMVVNPKPDGNGCVVTRSIEYEKTNENSPTPFDYLQFGHQAIEDMNKYLRDSESN
notes: Purified recombinant His6-tagged protein from E. coli; 133 amino acids; also called BetV1-1S; Bet v1-1S
As for B2, the binding result in data set [2] is “binds”.

B3: THS1 (thebaine synthesis polypeptide isoform, SEQ ID NO. 80) (enzyme)
chain: MDSINSSIYFCAYFRELIIKLLMAPLGVSGLVGKLSTELEVDCDAEKYYNMYKHGEDVQKAVPHLCVDVKVISGDPTRSGCIKEWNVNIDGKTIRSVEETTHNDETKTLRHRVFEGDMMKDFKKFDTIMVVNPKPDGNGCVVTRSIEYEKTNENSPTPFDYLQFGHQAIEDMNKYLRDSE
notes: Purified recombinant protein from E. coli, made from a codon-optimized gene; It carries a His6-tag; 181 amino acids; also called thebaine synthase 1
In the case of B3, the binding result in data set [3] is “binds”.

B4: THS1s (N-terminally truncated splice variant of THS1, SEQ ID NO. 81) (enzyme)
chain: MYKHGEDVQKAVPHLCVDVKVISGDPTRSGCIKEWNVNIDGKTIRSVEETTHNDETKTLRHRVFEGDMMKDFKKFDTIMVVNPKPDGNGCVVTRSIEYEKTNENSPTPFDYLQFGHQAIEDMNKYLRDSE
notes: Purified recombinant His6-tagged protein from E. coli; 131 amino acids
B4: the binding result in data set [3] is “binds”.
